These results are taken from patent publication US20200277374A1 (Alector, published 2020).

Assay [1] concerns the target T1, Siglec-7-Fc (plate immobilized) (human, UniProt Q9Y286 19-357, limits assumed).
T1 construct: also called Siglec-7-Fc protein; immobilized Siglec-7; not shown: Fc part
The assay can be described thus: RBC solid adhesion assay, plate-coated Siglec-7-Fc; isotype control.

Assay [2] addresses human Siglec-7 expressed on human cells (primary monocytes, dendritic cells, macrophages, NK cells, microglia, U937 cells, human cells of humanized mice) (human) (UniProt Q9Y286). The assay can be described thus: cell-based or functional assay.
Assay [3] shares this target. The assay can be described thus: FACS, human primary dendritic cells; isotype control (background). A general note: A flow cytometer gives signals particle by particle.
Assay [4] has the same target. Kind of assay: FACS, human primary macrophages; isotype control (background).
The target is the same in assay [5]. Kind of assay: FACS, human primary monocytes; isotype control (background).
The next assay has as its target T2, W74A (human, UniProt Q9Y286).
T2 construct: clone of the siglec-7 mutation library; also called Siglec-7 W74A
Kind of assay: flow cytometry on HEK-293T cells expressing the mutant; mean % of wild-type signal (range of duplicates). The procedure:
(§1) Shotgun mutagenesis epitope mapping of anti-siglec-7 antibodies was performed using an alanine-scanning library for the siglec-7 protein. […] Each of residues 19 to 353 was mutated, representing the siglec-7 extracellular domain, most to alanine, while alanine codons were mutated to serine. In total, 335 siglec-7 mutant expression constructs were generated, sequences confirmed, and arrayed into a 384-well plate, one mutant per well.
(§2) Cells were then incubated with MAbs diluted in 10% o normal goat serum (NGS) (Sigma-Aldrich, St. Louis, Mo.). Prior to library screening, primary MAb concentrations were determined using an independent immunofluorescence titration curve against cells expressing wild-type siglec-7 to ensure that signals were within the linear range of detection. MAbs were detected using 3.75 μg/ml AlexaFluor488-conjugated secondary antibody (Jackson immunoResearch Laboratories, Westgrove, Pa.) in 10% NGS. Cells were washed twice with PBS−/− and resuspended in Cellstripper (Cellgro, Manassas, Va.) with 0.1% BSA (Sigma-Aldrich, St. Louis, Mo.). Mean cellular fluorescence was detected using the Intellicyt high throughput flow cytometer (HTFC, Intellicyt, Albuquerque, N. Mex.). MAb reactivities against each mutant clone were calculated relative to wild-type siglec-7 protein reactivity by subtracting the signal from mock-transfected controls, and normalizing to the signal from wild-type siglec-7-transfected controls.

The target in the next assay is T3, V44A (human, UniProt Q9Y286).
T3 construct: clone of the siglec-7 mutation library; also called Siglec-7 V44A
Described as above. The protocol: as §1, §2

A further assay concerns the target T4, I72A (human, UniProt Q9Y286).
T4 construct: clone of the siglec-7 mutation library; also called Siglec-7 I72A
The assay is described as above. The procedure: as §1, §2

For another assay, the target named is T5, R45A (human, UniProt Q9Y286).
T5 construct: clone of the siglec-7 mutation library; also called Siglec-7 R45A
The description is as above. The protocol: as §1, §2

In the next assay the target is T6, F48A (human, UniProt Q9Y286).
T6 construct: clone of the siglec-7 mutation library; also called Siglec-7 F48A
Described as above. The procedure: as §1, §2

A further assay deals with T7, S47A (human, UniProt Q9Y286).
T7 construct: clone of the siglec-7 mutation library; also called Siglec-7 S47A
Described as above. The procedure: as §1, §2

The target of the next assay is T8, R124A (human, UniProt Q9Y286).
T8 construct: clone of the siglec-7 mutation library; also called Siglec-7 R124A
The assay is described as above. The protocol: as §1, §2

The next assay addresses T9, K104A (human, UniProt Q9Y286).
T9 construct: clone of the siglec-7 mutation library; also called Siglec-7 K104A
The assay is described as above. The procedure:
as §1, §2

Another assay deals with T10, N81A (human, UniProt Q9Y286).
T10 construct: clone of the siglec-7 mutation library; also called Siglec-7 N81A
The assay is described as above. The procedure:
as §1, §2

Another assay deals with T11, M185A (human, UniProt Q9Y286).
T11 construct: clone of the siglec-7 mutation library; also called Siglec-7 M185A
The description is as above. The procedure:
as §1, §2

The next assay addresses T12, M30A (human, UniProt Q9Y286).
T12 construct: clone of the siglec-7 mutation library; also called Siglec-7 M30A
The description is as above. The protocol: as §1, §2

Another assay concerns the target T13, Y50A (human, UniProt Q9Y286).
T13 construct: clone of the siglec-7 mutation library; also called Siglec-7 Y50A
Described as above. The procedure: as §1, §2

For a further assay, the target named is T14, T107A (human, UniProt Q9Y286).
T14 construct: clone of the siglec-7 mutation library; also called Siglec-7 T107A
The description is as above. The procedure:
as §1, §2

Another assay deals with T15, T103A (human, UniProt Q9Y286).
T15 construct: clone of the siglec-7 mutation library; also called Siglec-7 T103A
Described as above. The protocol: as §1, §2

Sequence of human Siglec-7 expressed on human cells (primary monocytes, dendritic cells, macrophages, NK cells, microglia, U937 cells, human cells of humanized mice) (human) (Q9Y286 19-467): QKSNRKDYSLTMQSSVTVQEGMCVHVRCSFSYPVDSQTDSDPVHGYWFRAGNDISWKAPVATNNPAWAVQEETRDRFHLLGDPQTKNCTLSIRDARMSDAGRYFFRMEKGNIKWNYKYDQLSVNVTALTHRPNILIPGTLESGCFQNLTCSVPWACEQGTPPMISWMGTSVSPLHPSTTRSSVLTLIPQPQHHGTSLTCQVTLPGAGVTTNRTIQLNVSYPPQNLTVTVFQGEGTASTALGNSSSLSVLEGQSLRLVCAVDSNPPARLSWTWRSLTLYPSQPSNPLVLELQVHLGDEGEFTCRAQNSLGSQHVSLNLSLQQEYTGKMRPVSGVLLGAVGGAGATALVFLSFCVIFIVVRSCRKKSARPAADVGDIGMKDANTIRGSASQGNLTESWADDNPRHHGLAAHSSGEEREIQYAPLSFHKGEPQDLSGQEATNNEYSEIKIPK
T12 sequence (Q9Y286 19-467 M30A limits assumed): as the sequence (Q9Y286 19-467) above, with M12A counted along it
T7 sequence (Q9Y286 19-467 S47A limits assumed): as the sequence (Q9Y286 19-467) above, with S29A counted along it
T9 sequence (Q9Y286 19-467 K104A limits assumed): as the sequence (Q9Y286 19-467) above, with K86A counted along it
T13 sequence (Q9Y286 19-467 Y50A limits assumed): as the sequence (Q9Y286 19-467) above, with Y32A counted along it
T15 sequence (Q9Y286 19-467 T103A limits assumed): as the sequence (Q9Y286 19-467) above, with T85A counted along it
T8 sequence (Q9Y286 19-467 R124A limits assumed): as the sequence (Q9Y286 19-467) above, with R106A counted along it
T5 sequence (Q9Y286 19-467 R45A limits assumed): as the sequence (Q9Y286 19-467) above, with R27A counted along it
T3 sequence (Q9Y286 19-467 V44A limits assumed): as the sequence (Q9Y286 19-467) above, with V26A counted along it
T10 sequence (Q9Y286 19-467 N81A limits assumed): as the sequence (Q9Y286 19-467) above, with N63A counted along it
T6 sequence (Q9Y286 19-467 F48A limits assumed): as the sequence (Q9Y286 19-467) above, with F30A counted along it
T4 sequence (Q9Y286 19-467 I72A limits assumed): as the sequence (Q9Y286 19-467) above, with I54A counted along it
T11 sequence (Q9Y286 19-467 M185A limits assumed): as the sequence (Q9Y286 19-467) above, with M167A counted along it
T14 sequence (Q9Y286 19-467 T107A limits assumed): as the sequence (Q9Y286 19-467) above, with T89A counted along it
T1 sequence (Q9Y286 19-357 limits assumed): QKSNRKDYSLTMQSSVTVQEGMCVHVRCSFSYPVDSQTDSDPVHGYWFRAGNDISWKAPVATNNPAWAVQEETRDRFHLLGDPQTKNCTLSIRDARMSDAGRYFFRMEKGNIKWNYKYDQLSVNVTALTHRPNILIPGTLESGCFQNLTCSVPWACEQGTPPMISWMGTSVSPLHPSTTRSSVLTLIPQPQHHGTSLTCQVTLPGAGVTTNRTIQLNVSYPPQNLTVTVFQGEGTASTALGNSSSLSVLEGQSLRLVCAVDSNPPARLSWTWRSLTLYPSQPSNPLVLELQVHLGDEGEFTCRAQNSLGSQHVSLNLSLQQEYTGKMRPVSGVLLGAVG
T2 sequence (Q9Y286 19-467 W74A limits assumed): as the sequence (Q9Y286 19-467) above, with W56A counted along it

In assay [1], mIgG2b isotype control antibody showed a Percent RBC Binding to Siglec-7 of 102%. In assay [2], this substance gave a Percent Siglec-7 Surface Expression, DCs of 100%; a Percent Siglec-7 Surface Expression, Macrophages of 100%; a Percent Siglec-7 Surface Expression, Microglia of 88.8%; a Percent Siglec-7 Surface Expression, Monocytes of 96.2%. In [2], the Percent Siglec-7 Surface Expression, NK cells is 101% and the Percent Siglec-7 Surface Expression, U937 cells was 99.3%. In assay [3], this substance gave a % Positive of 5% and an MFI of 130. In assay [4], the % Positive was found to be 79.5% and the MFI turned out to be 2060. Moreover, in [5], the % Positive was 13.9% and the MFI amounted to 128.
Regarding S7.7 MAb (antibody), the Binding Reactivity (% WT) worked out at 83.7 % WT with W74A; 89.3 % WT with V44A; 101 % WT with I72A; 126 % WT with R45A; 158 % WT with F48A; 118 % WT in the assay with S47A. The Binding Reactivity (% WT) came out at 115 % WT with R124A; 115 % WT with K104A; 5.6 % WT with N81A; 74.3 % WT in the assay with M185A; 100 % WT in the assay with M30A; 142 % WT with Y50A. The Binding Reactivity (% WT) with T107A came to 129 % WT; with T103A, 106 % WT.
Regarding 6-434 MAb (antibody), the Binding Reactivity (% WT) with W74A was determined as 74.9 % WT; in the assay with V44A, 68 % WT; with I72A, 64.2 % WT; in the assay with R45A, 112 % WT; in the assay with F48A, 113 % WT; with S47A, 101 % WT. Moreover, the Binding Reactivity (% WT) in the assay with R124A came out at 126 % WT; in the assay with K104A it was 83.8 % WT; in the assay with N81A, 112 % WT; with M185A, 69.3 % WT; with M30A, 84.8 % WT; in the assay with Y50A, 97.9 % WT. Moreover, the Binding Reactivity (% WT) with T107A came to 66.8 % WT; with T103A it was 77.5 % WT.
Turning to mIgG1 isotype control antibody, the Percent RBC Binding to Siglec-7 in [1] was 107%. For the same substance, in assay [2], the Percent Siglec-7 Surface Expression, DCs is 101%; the Percent Siglec-7 Surface Expression, Macrophages is 100%; the Percent Siglec-7 Surface Expression, Microglia turned out to be 88.7%; the Percent Siglec-7 Surface Expression, Monocytes was 96.2%. In addition, in assay [2], the Percent Siglec-7 Surface Expression, NK cells came to 99.6% and the Percent Siglec-7 Surface Expression, U937 cells was 102%. In addition, in [3], the % Positive stood at 2.8% and the MFI came out at 83. For the same substance, in assay [4], the % Positive came out at 21.7% and the MFI turned out to be 368. For the same substance, in assay [5], the % Positive stood at 10.6% and the MFI came to 115.
